{
  "source": "patent US7795386B2",
  "about": "“Peptides comprising an isoDGR motif” (Molmed SpA, priority 2004, dated 2010)",
  "molecules": {"B1": {"name": "Cys-Asn-Gly-Arg-Cys-Gly-(SEQ ID NO: 7)TNF (protein)", "chain": "CNGRCGLRSSSQNSSDKPVAHVVANHQVEEQLEWLSQRANALLANGMDLKDNQLVVPADGLYLVYSQVLFKGQGCPDYVLLTHTVSRFAISYQEKVNLLSAVKSPCPKDTPEGAELKPWYEPIYLGGVFQLEKGDQLSAEVNLPKYLDFAESGQVYFGVIAL", "notes": "murine TNF fused with the C-terminus of CNGRCG, recombinant"}, "B2": {"name": "heat-treated CNGRC-TNF: CNGRC-TNF incubated in 0.1 M ammonium bicarbonate buffer, pH 8.5, 16 h at 37° C. (protein)", "chain": "B1 chain"}},
  "key": {"αvβ3 integrin [1]": {"target": "T1, αvβ3 integrin (Homo sapiens, UniProt P05106+P06756)", "T1 construct": "purchased Immunological Sciences", "T1 sequence (P06756 31-889 limits assumed)": "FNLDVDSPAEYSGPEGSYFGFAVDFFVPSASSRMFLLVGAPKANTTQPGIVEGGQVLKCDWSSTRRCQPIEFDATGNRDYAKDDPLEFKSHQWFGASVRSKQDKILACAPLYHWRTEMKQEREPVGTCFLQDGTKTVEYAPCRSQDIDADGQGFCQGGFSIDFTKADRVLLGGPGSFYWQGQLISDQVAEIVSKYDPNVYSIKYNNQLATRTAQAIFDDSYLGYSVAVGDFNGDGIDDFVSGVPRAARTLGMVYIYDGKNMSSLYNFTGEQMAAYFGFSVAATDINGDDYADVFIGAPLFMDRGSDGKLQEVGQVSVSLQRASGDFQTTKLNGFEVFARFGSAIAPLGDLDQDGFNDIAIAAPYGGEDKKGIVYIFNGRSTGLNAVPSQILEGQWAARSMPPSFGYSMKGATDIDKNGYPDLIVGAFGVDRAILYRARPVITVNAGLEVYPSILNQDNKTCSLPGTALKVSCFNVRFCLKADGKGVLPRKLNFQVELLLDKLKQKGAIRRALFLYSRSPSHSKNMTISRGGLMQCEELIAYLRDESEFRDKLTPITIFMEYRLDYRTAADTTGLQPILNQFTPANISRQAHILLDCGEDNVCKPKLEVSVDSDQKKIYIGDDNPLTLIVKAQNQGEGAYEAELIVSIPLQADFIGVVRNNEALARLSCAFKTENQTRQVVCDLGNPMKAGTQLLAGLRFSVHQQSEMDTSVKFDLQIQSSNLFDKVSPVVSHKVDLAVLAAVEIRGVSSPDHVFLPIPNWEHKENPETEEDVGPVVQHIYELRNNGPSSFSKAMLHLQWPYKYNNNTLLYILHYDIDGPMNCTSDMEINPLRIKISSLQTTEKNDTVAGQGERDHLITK", "T1 sequence (P06756 891-1048 partner limits assumed)": "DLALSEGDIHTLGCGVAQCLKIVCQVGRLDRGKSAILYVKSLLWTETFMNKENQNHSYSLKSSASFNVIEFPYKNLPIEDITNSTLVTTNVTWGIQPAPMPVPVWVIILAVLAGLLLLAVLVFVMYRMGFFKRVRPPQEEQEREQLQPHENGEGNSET", "T1 sequence (P05106 27-788)": "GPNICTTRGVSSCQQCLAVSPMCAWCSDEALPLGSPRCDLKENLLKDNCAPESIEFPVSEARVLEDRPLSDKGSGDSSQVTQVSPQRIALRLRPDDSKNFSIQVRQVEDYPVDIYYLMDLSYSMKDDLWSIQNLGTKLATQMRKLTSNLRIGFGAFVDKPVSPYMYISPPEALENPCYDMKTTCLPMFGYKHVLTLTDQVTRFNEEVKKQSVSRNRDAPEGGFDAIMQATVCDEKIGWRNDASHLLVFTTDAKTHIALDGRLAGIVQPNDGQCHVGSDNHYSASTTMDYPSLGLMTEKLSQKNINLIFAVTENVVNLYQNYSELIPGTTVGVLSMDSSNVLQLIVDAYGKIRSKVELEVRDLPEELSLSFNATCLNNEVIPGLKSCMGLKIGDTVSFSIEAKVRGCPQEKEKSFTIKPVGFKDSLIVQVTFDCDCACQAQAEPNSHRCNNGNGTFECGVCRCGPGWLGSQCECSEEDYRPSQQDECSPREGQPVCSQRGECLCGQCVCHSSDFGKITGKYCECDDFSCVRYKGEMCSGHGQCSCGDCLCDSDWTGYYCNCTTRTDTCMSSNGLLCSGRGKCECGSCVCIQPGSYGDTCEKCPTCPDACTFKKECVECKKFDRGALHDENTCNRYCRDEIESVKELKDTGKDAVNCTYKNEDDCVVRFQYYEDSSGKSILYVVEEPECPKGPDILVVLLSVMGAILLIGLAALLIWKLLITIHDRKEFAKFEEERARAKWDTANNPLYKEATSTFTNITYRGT", "test": "competitive binding of biotinylated NGR-TNF to αvβ3 coated plates", "settings": "FN-I5 incubated at 37° C. in DMEM", "protocol": "Biotinylated NGR-TNF (4 μg/ml) was mixed with different amount of the indicated peptides and added to αvβ3 coated plates. Binding was detected as described in Materials and Methods. IC50 was determined by nonlinear regression analysis using the GraphPad Prism software. The kinetics of deamidation of FN-I5 was determined by plotting the inhibitory concentration (IC50) versus the incubation times. Bars represent the confidence intervals for each determined IC50.\n(§1) Human αvβ3, αvβ5, α5β1 and α1β1 integrins solutions, 0.5-2 μg/ml in phosphate buffered saline with Ca^2+ and Mg^2+ (DPBS, Cambrex), were added to 96-well polyvinylchloride microtiter plates (50 μl/well) and left to incubate overnight at 4° C. All subsequent steps were carried out at room temperature. […] Bound peroxidase was detected by adding o-phenylendiammine chromogenic substrate.\n(§2) Binding of biotinylated peptides (CNGRC (SEQ ID NO: 6)-TNF1-11, CARAC (SEQ ID NO: 36)-TNF1-11 and FN-I5) to purified integrins was studied using streptavidin-peroxidase conjugate complexes. Complexes were prepared by mixing various quantities (0.5-1 μg) of heat-treated biotinylated peptides in DPBS containing 3% BSA with 0.03 units of streptavidinperoxidase (binding capacity: 1 μg of biotin/unit of streptavidin-peroxidase) (final volume 15 μl). […] After washing with DPBS, bound peroxidase was detected by chromogenic reaction as described above. […]"}, "L-M mouse fibroblasts": {"system": "L-M mouse fibroblasts", "test": "standard cytolytic assay with L-M mouse fibroblasts", "format": "cell-based", "settings": "for Cytolytic Activity: in vitro, L-M murine fibroblasts", "excerpt": "Protein purity and identity were checked by SDS-PAGE, electrospray mass spectrometry and gel-filtration chromatography.\nThe cDNA coding for DGR-TNF (mouse TNF fused with the C-terminus of CDGRCG (SEQ ID NO: 24)) was obtained by PCR on NGR-TNF plasmid, using the following primers: 5′ […] 3′ (SEQ ID NO: 43) (5′ primer); 5′ […] ′3 (SEQ ID NO: 44) (3′ primer). Both primers were designed to allow the directional cloning into a pET101/D-TOPO plasmid expression kit (Invitrogen). The underlined sequence in 5′ primer contains the sequence necessary to enable the directional cloning and the initial translation codon whereas the 3′ primer contains the stop codon (underlined). The PCR reaction and the cloning procedure were performed as recommended by the manufacturer's instruction. […] The column was washed extensively 100 mM Tris-HCl buffer containing pH 8.0, loaded with DGR-TNF crude extract, diluted in 20 mM Tris-HCl buffer conatining 2 mM EDTA pH 8.0, and desorbed by elution with 7 M urea, 100 mM Tris-HCl, pH 8.0. DGR-TNF was then refolded as described (1). Briefly, the denatured products were dialyzed against 2.33 M urea, 100 mM Tris-HCl, pH 8.0 at 4° C. (140 min), followed by 1.55 M urea, 100 mM Tris-HCl, pH 8.0 (140 min), and 1 M urea, 100 mM Tris-HCl, pH 8 (140 min). Finally the products were dialyzed against 100 mM Tris-HCl, pH 8.0 (48 h). The products were centrifuged at 13000×g (10 min, 4° C.) and concentrated by ultra-filtration through a 10 KDa cut-off filter. All solutions used in the purification and refolding steps were prepared with sterile and endotoxin-free water (S.A.L.F. Laboratorio Farmacologico SpA, Bergamo, Italy). Protein concentration was measured using the BCA Protein Assay Reagent (Pierce, Rockford, Ill.). Protein purity and identity were checked by SDS-PAGE, electrospray mass spectrometry (ESI-MS) and analytical gel-filtration chromatography."}, "αvβ3 integrin [2]": {"target": "T1, αvβ3 integrin", "test": "direct ELISA binding to purified integrin adsorbed on microtiterplates", "protocol": "(A) Binding of heat-treated CNGRC-TNF and TNF to solid phases coated with purified human integrins. Single concentration (5 μg/ml) or various concentrations (inset) of CNGRC-TNF and TNF were used. Binding was detected with anti-TNF antibodies as described in Materials and Methods.\n(B) Binding of biotinylated CNGRC-TNF1-11, CARAC-TNF1-11 and FN-I5 (complexed with streptavidin-peroxidase) to purified human integrins. Binding was detected by chromogenic reaction with o-phenylendiammine.\nas §1, with “C.” for “C. All subsequent steps were carried out at room temperature.”\nas §2"}, "EA.hy926 cells [3]": {"system": "EA.hy926 cells", "test": "EA.hy926 cell adhesion assay on coated microtiter plates", "format": "cell-based, human", "settings": "for EA.hy926 cell adhesion to coated product after heat-treatment: 0.1 M ammonium bicarbonate buffer, pH 8.5, 16 h at 37° C.", "protocol": "Adhesion of EA.hy926 cells to microtiter plates coated with various peptides and proteins before and after accelerated aging. Accelerated aging was performed by peptide incubation in 0.1 M ammonium bicarbonate buffer, pH 8.5, for 16 h at 37° C. (“heat-treatment”). Adhesion to: recombinant FN-I4-5 or control protein (FN-I4-5 (SGS)) (A), synthetic FN-I5 (B), recombinant CNGRC-TNF, CNGRC-TNF1-11 and control CARAC-TNF1-11 peptide (C), CDGRC-TNF (D). Heat-treated (37° C.) and untreated (−20° C.) products were adsorbed onto the plastic surface of microtiter wells (overnight at 4° C.). Microphotograph of wells coated with 30 μg/ml of heat-treated FN-I5 or BSA (B, right) or with 10 μg/ml of recombinant CNGRC-TNF or CDGRC-TNF (C, right), ×200. Cell adhesion assay was carried out as described in Materials and Methods. The TNF fusion constructs, including the TNF1-11 fusion constructs, were made as described Materials and Methods, and include a “G” linker.\n(§3) Untreated and “heat treated” fibronectin fragments, peptides and peptide-TNF conjugates were diluted at the desired concentration with 150 mM sodium chloride, 50 mM sodium phosphate, pH 7.3, and added to 96-well polyvinyl chloride microtiter plates (Falcon, Becton Dickinson). After overnight incubation at 4° C., the plates were washed, seeded with EA.hy926 cell in DMEM containing 0.1% BSA (40000 cells/well) and left to incubate for 2-3 h at 37° C., 5% CO2. Adherent cells were fixed and stained with crystal violet as described (Curnis et al., 2005)."}, "[4]": {"test": "isoaspartate (isoAsp) quantification, ISOQUANT enzymatic assay", "settings": "for isoAsp (%): pmol of isoAsp/pmol of peptide (%)", "excerpt": "IsoAsp content in untreated and “heat treated” CNGRC (SEQ ID NO: 6)—TNF and peptides was quantified by using the ISOQUANT™ Isoaspartate Detection Kit (Promega)."}, "[5]": {"settings": "bolus, humans (Fraker et al., 1995); cited from earlier work"}, "EA.hy926 cells [6]": {"system": "EA.hy926 cells", "test": "PIMT treatment of coated products followed by EA.hy926 cell adhesion assay", "format": "cell-based, human", "settings": "PIMT 16 h at 37° C.", "protocol": "Microtiterplates were coated with heat-treated FN-I5 or NGR-TNF (A), or with natural FN-30 KDa, FN-45 KDa or retronectin (RN) (CNGRC disclosed as SEQ ID NO: 6) (B). The adsorbed proteins were then treated with PIMT enzyme for 16 h at 37° C. After incubation the enzyme solution was removed by washing. EA.hy926 cell adhesion assay was then performed as described in Materials and Methods.\nThe effect of protei nL-isoAsp/D-As pO-methyltransferase (PIMT) on the pro-adhesive properties of different fragments was investigated as follows: microtiter plates were coated with various products as described above and washed with 0.9% sodium chloride. Each well was then filled with 45 μl of a solution containing 0.02 mM S-adenosyl-L-methionine in 150 mM sodium chloride, 50 mM sodium phosphate buffer, pH 6.8, and 5 μl of PIMT solution (from the Isoquant Isoaspartate Detection kit, Promega) (final volume 50 μl/well) and incubated at 37° C. for 16 h. After incubation the plates were washed with 0.9% sodium chloride and cell adhesion assay was performed as described above."}, "[7]": {"system": "EA.hy926 cell adhesion to vitronectin", "test": "inhibition of EA.hy926 cell adhesion to vitronectin", "format": "cell-based, human", "settings": "vitronectin 3 μg/ml coated", "protocol": "(A) Inhibition of EA.hy926 cell adhesion to vitronectin by heat-treated FN-I5. Vitronectin (3 μg/ml) was adsorbed to microtiter plate and cell adhesion assay was performed as described in Materials and Methods.\nas §3"}, "RMA lymphoma": {"system": "RMA lymphoma", "test": "RMA lymphoma tumor growth in mice, heat-treated FN-I5", "format": "in vivo, mouse", "settings": "200 μg i.p. daily from day 4; p=0.0003 at day 14", "protocol": "(B) Anti-tumor effects of repeated administration of “heat-treated” FN-I5 to RMA-tumor bearing mice. Animals (5/group) were treated with 200 μg of “heat-treated” FN-I5 (i.p.) at the indicated times (arrows) starting 4 days after tumor implantation. * p=0.0003 at day 14, statistical analysis by two tailed t-test.\nStudies on animal models were approved by the Ethical Committee of the San Raffaele H Scientific Institute and performed according to the prescribed guidelines. C57BL/6N mice (Charles River Laboratories, Calco, Italy) weighing 16-18 g were challenged with subcutaneous injection in the left flank of 7×10^4 RMA living cells; 4 days later, the mice were treated daily with 200 μg of heat-treated FN-I5 (100 μl) in 0.9% sodium chloride (i.p.). Tumor growth was monitored by measuring the tumors with calipers as previously described (Gasparri et al., 1999). Animals were sacrificed before the tumors reached 1.0-1.3 cm in diameter. Tumor sizes are shown as mean±SE (5 animals/group)."}},
  "data": [
    {"molecule": "FN-I5: synthetic peptide, 5th type I repeat of human fibronectin, residues 230-274, additional N-terminal acetyl-glycine, Glu250 in place of Asp250", "values": [
      {"measurement": "incubation time to maximal competitive binding activity", "setting": "αvβ3 integrin [1]", "result": "24 to 48", "unit": "h"}
    ]},
    {"molecule": "TNF: murine TNF by recombinant DNA technology; in b159 bolus TNF in humans (literature) [reference compound]", "values": [
      {"measurement": "Cytolytic Activity", "setting": "L-M mouse fibroblasts", "result": "8 × 10^8 U/mg"},
      {"measurement": "binding to αvβ3", "setting": "αvβ3 integrin [2]; heat-treated products, in words", "result": "No binding"},
      {"measurement": "EA.hy926 cell adhesion to coated product after heat-treatment", "setting": "EA.hy926 cells [3]", "result": "No adhesion"},
      {"measurement": "EA.hy926 cell adhesion to coated product", "setting": "EA.hy926 cells [3]; before heat treatment", "result": "No adhesion"},
      {"measurement": "isoAsp (%)", "setting": "[4]", "result": 2.6, "unit": "%"},
      {"measurement": "maximum tolerated dose", "setting": "[5]", "result": "218-410 μg/m^2"}
    ]},
    {"molecule": "heat-treated FN-I5: FN-I5 incubated in 0.1 M ammonium bicarbonate buffer, pH 8.5, 16 h at 37° C. (deamidated)", "values": [
      {"measurement": "effect of PIMT on pro-adhesive activity", "setting": "EA.hy926 cells [6]", "result": "almost completely inhibited"},
      {"measurement": "inhibition of adhesion of EA.hy926 cells to vitronectin", "setting": "[7]", "result": "could inhibit"},
      {"measurement": "tumor growth in RMA lymphoma bearing mice", "setting": "RMA lymphoma", "result": "significantly inhibited tumor growth"}
    ]},
    {"molecule": "B1", "values": [
      {"measurement": "cytolytic activity after heat treatment", "setting": "L-M mouse fibroblasts; 0.1 M ammonium bicarbonate buffer, pH 8.5, 37° C., 4 h of treatment", "result": "no loss of cytolytic activity"},
      {"measurement": "Cytolytic Activity", "setting": "L-M mouse fibroblasts", "result": "2.96 (±0.56)×10^8 U/mg"},
      {"measurement": "Cytolytic Activity", "setting": "L-M mouse fibroblasts; listed as NGR-TNF", "result": "2.9 × 10^8 U/mg"},
      {"measurement": "binding to αvβ3 before heat treatment", "setting": "αvβ3 integrin [2]; untreated, data not shown", "result": "to a lower extent"},
      {"measurement": "EA.hy926 cell adhesion to coated product after heat-treatment", "setting": "EA.hy926 cells [3]", "result": "increased cell adhesion"},
      {"measurement": "isoAsp content after heat treatment", "setting": "[4]; 0.1 M ammonium bicarbonate pH 8.5, 16 h, 37° C.", "result": "> 0.5 mol isoAsp/mol CNGRC-TNF subunit"},
      {"measurement": "isoAsp (%)", "setting": "[4]", "result": 29.8, "unit": "%"}
    ]},
    {"molecule": "B2", "values": [
      {"measurement": "effect of PIMT on pro-adhesive activity", "setting": "EA.hy926 cells [6]", "result": "almost completely inhibited"}
    ]}
  ]
}
